Target: mutant membrane-bound TNFα on stably transfected CHO cells (B-220 cells) (UniProt P01375)
Test: FACS, anti-CD19 beads with TNFα-transfected CHO cells

UniProt P01375, sequence (P01375 whole entry, change not shown): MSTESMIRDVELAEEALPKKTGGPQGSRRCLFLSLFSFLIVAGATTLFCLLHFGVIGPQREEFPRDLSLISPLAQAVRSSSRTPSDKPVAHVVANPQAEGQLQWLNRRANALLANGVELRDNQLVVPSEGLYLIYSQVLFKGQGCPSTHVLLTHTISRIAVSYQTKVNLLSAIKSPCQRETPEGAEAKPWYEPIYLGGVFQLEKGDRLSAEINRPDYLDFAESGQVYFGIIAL

Question: Which results are given for “APC-labeled unrelated antibody (anti-CD19) coated on beads”?
Answer: #Events (CHO cells bound to anti-CD19 beads, gate P4): 6 events; #Events (unbound beads, gate P2): 558 events; % Parent (gate P4): 0.1%; % Total (gate P4): 0.1%

Reference: patent publication US20190382498A1
